Assay [1] has as its target T1, human FcgRIIa type R extracellular domain (human, UniProt P12318 34-217).
T1 construct: extracellular domain; also called hFcgRIIaR
T1 sequence (looked up): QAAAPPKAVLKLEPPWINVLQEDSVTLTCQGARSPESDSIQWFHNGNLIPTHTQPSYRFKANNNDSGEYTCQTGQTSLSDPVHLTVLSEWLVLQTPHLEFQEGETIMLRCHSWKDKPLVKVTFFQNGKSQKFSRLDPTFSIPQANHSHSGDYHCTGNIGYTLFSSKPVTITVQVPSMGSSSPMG
Put plainly: SPR 25C.

The target of assay [2] is T2, human FcgRIIIa V158 extracellular domain (human, UniProt P08637 17-208).
T2 construct: extracellular domain; also called hFcgRIIIaV
T2 sequence (P08637 17-208 F176V): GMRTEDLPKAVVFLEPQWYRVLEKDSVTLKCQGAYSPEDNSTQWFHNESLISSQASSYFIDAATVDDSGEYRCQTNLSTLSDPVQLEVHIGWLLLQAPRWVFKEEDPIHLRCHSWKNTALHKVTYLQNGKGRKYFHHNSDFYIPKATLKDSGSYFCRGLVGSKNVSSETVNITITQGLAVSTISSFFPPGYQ
The experiment in a line: SPR 25C.

For assay [3], the target named is T3, human FcgRIIIa F158 extracellular domain (human, UniProt P08637 17-208).
T3 construct: extracellular domain; also called hFcgRIIIaF
T3 sequence (P08637 17-208): as the sequence (P08637 17-208 F176V) above, with V160F counted along it
The experiment in a line: SPR 25C.

In assay [4] the target is T4, human FcgRIIa type H extracellular domain (human, UniProt P12318 34-217).
T4 construct: extracellular domain; also called hFcgRIIaH
T4 sequence (looked up): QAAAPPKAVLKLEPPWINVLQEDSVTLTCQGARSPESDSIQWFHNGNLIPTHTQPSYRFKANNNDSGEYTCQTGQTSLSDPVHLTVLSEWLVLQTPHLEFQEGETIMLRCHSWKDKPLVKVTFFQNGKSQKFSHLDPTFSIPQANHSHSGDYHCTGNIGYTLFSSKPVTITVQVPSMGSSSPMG
The experiment in a line: SPR 25C.

Assay [5] has as its target T5, human FcgRIIb extracellular domain (human, UniProt P31994 43-217).
T5 construct: extracellular domain; also called hFcgRIIb
T5 sequence (looked up): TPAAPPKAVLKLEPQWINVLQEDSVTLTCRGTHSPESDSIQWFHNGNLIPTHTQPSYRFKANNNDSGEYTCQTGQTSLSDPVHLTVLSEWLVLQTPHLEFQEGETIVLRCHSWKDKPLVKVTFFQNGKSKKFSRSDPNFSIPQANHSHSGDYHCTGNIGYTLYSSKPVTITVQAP
Put plainly: SPR 25C.

The target of assay [6] is T6, human FcgRIa extracellular domain (human, UniProt P12314 16-292).
T6 construct: extracellular domain; also called hFcgRIa
T6 sequence (P12314 16-292): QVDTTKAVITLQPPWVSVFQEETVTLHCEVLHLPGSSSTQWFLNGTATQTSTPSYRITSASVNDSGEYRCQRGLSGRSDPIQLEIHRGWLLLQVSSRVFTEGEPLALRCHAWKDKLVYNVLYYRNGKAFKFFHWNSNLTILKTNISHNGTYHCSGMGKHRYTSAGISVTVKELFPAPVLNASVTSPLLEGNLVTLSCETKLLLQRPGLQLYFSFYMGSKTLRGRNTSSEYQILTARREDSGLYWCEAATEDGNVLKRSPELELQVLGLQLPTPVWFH
Put plainly: SPR 25C.

For a further assay, the target named is human FcRn (human, UniProt P55899 24-290; P61769 21-119). The experiment in a line: SPR 25C pH 6.0, steady state. The method, boiled down: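 Antibody (~400 RU) captured on anti-Fab-lambda sensor chip, human FcRn injected as analyte.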
human FcRn, sequence (P55899 24-290 limits assumed, chain 1 of 2): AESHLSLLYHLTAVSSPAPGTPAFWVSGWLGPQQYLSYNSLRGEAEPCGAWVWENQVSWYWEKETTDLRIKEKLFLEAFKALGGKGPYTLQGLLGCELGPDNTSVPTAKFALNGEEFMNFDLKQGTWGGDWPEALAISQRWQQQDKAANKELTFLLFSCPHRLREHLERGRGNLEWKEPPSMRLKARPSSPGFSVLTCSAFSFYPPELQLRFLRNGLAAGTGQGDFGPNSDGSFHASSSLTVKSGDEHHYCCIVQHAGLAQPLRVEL
human FcRn, sequence (P61769 21-119 limits assumed, chain 2 of 2): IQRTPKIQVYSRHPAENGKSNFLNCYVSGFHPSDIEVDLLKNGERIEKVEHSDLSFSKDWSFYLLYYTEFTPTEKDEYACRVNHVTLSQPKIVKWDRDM

B1: A375-SCF033/B167-Lamlib (antibody, human IgG1, lambda)
heavy: EVQLVESGGGLVKPGGSLRLSCAASGFTFSTFTMNWVRQAPGKGLEWVSSISSKSTYIEYADSFKVRFTISRDNAKNSLYLQMNSLRAEDTAVYYCARYGAKNFLNWVFDYWGQGTLVTVSSASTKGPSVFPLAPSSKSTSGGTAALGCLVKDYFPEPVTVSWNSGALTSGVHTFPAVLQSSGLYSLSSVVTVPSSSLGTQTYICNVNHKPSNTKVDKKVEPKSCDKTHTCPPCPAPEYLGDDSVFLFPPKPKDVLMISRTPEVTCVVVDVSHEDPEVKFNWYVDGVEVHNAKTKPREEQYNSTYRVVSVLPVLHRDWLNGKEYKCKVSNKALPKPIEKTISKAKGQRREPQVYTLPPSREEMTKNQVSLTCLVKGFYPSDIAVEWESNGQPENNYKTTPPVLDSDGSFFLYSKLTVDKSRWQQGNVFSCSVMHEALHNHYTQKSLSLSP
light: QSALTQPPSASGSPGQTVTISCTGTRYDVGYYEYVSWYQQHPGKAPKLMIYETSKRLSGVPDRFSGSKSGNTASLTVSGLQAEDEADYYCSSYRYEHQVSFGGGTKLTVLGQPKAAPSVTLFPPSSEELQANKATLVCLISDFYPGAVTVAWKADSSPVKAGVETTTPSKQSNNKYAASSYLSLTPEQWKSHRSYSCQVTHEGSTVEKTVAPTECS
For the molecule B1, the “binding per 1RU antibody” value in assay [1] turned out to be 0.0255 RU; in assay [2], 0.0002 RU; in assay [3] it was 0 RU; in assay [4] it was 0.0103 RU; in assay [5] it was 0.0979 RU; in assay [6] it was 0.0033 RU. Moreover, the “relative binding (A375-G1T3/B167-Lamlib=1)” value (shortened to “relative binding”) in assay [1] is 0.55; in assay [2], 0; in assay [3] it was 0; in assay [4], 0.18; in assay [5], 8.94; in assay [6] it was 0.04. Besides, in the assay with human FcRn, the Kd was determined as 874 nM.

B2: A375-SCF039a/B167-Lamlib (antibody, human IgG1, lambda)
heavy: EVQLVESGGGLVKPGGSLRLSCAASGFTFSTFTMNWVRQAPGKGLEWVSSISSKSTYIEYADSFKVRFTISRDNAKNSLYLQMNSLRAEDTAVYYCARYGAKNFLNWVFDYWGQGTLVTVSSASTKGPSVFPLAPSSKSTSGGTAALGCLVKDYFPEPVTVSWNSGALTSGVHTFPAVLQSSGLYSLSSVVTVPSSSLGTQTYICNVNHKPSNTKVDKRVEPKSCDKTHTCPPCPAPELWNGPSVFLFPPKPKDTLMISRTPEVTCVVVDVSDEDPEVKFNWYVDGVEVHNAKTKPREELYNSTYRVVSVLTVLHQDWLNGKEYKCKVSNTALPKPIEKTISKAKGQRREPQVYTLPPSREEMTKNQVSLTCLVKGFYPSDIAVEWESNGQPENNYKTTPPVLDSDGSFFLYSKLTVDKSRWQQGNVFSCSVMHEALHNHYTQKSLSLSP
light: QSALTQPPSASGSPGQTVTISCTGTRYDVGYYEYVSWYQQHPGKAPKLMIYETSKRLSGVPDRFSGSKSGNTASLTVSGLQAEDEADYYCSSYRYEHQVSFGGGTKLTVLGQPKAAPSVTLFPPSSEELQANKATLVCLISDFYPGAVTVAWKADSSPVKAGVETTTPSKQSNNKYAASSYLSLTPEQWKSHRSYSCQVTHEGSTVEKTVAPTECS
With B2, the “binding per 1RU antibody” value in assay [1] amounted to 0.0554 RU; in assay [2] it was 0.0013 RU; in assay [3] it was 0.0012 RU; in assay [4], 0.0542 RU; in assay [5], 0.054 RU; in assay [6], 0.0018 RU. Also, the “relative binding” value in assay [1] worked out at 1.2; in assay [2] it was 0.02; in assay [3], 0.06; in assay [4] it was 0.96; in assay [5], 4.93; in assay [6] it was 0.02. Also, the affinity with human FcRn, expressed as Kd, was 1110 nM.

B3: A375-SCF039/B167-Lamlib (antibody, human IgG1, lambda)
heavy: EVQLVESGGGLVKPGGSLRLSCAASGFTFSTFTMNWVRQAPGKGLEWVSSISSKSTYIEYADSFKVRFTISRDNAKNSLYLQMNSLRAEDTAVYYCARYGAKNFLNWVFDYWGQGTLVTVSSASTKGPSVFPLAPSSKSTSGGTAALGCLVKDYFPEPVTVSWNSGALTSGVHTFPAVLQSSGLYSLSSVVTVPSSSLGTQTYICNVNHKPSNTKVDKKVEPKSCDKTHTCPPCPAPELWNGPSVFLFPPKPKDTLMISRTPEVTCVVVDVSDEDPEVKFNWYVDGVEVHNAKTKPREELYNSTYRVVSVLTVLHQDWLNGKEYKCKVSNTALPKPIEKTISKAKGQRREPQVYTLPPSREEMTKNQVSLTCLVKGFYPSDIAVEWESNGQPENNYKTTPPVLDSDGSFFLYSKLTVDKSRWQQGNVFSCSVMHEALHNHYTQKSLSLSP
light: QSALTQPPSASGSPGQTVTISCTGTRYDVGYYEYVSWYQQHPGKAPKLMIYETSKRLSGVPDRFSGSKSGNTASLTVSGLQAEDEADYYCSSYRYEHQVSFGGGTKLTVLGQPKAAPSVTLFPPSSEELQANKATLVCLISDFYPGAVTVAWKADSSPVKAGVETTTPSKQSNNKYAASSYLSLTPEQWKSHRSYSCQVTHEGSTVEKTVAPTECS
For the molecule B3, the “binding per 1RU antibody” value in assay [1] stood at 0.0542 RU; in assay [2], 0.0013 RU; in assay [3], 0.0008 RU; in assay [4], 0.0535 RU; in assay [5] it was 0.0531 RU; in assay [6] it was 0.0018 RU. Besides, the “relative binding” value came to 1.17 in assay [1]; 0.02 in assay [2]; 0.04 in assay [3]; 0.94 in assay [4]; 4.85 in assay [5]; 0.02 in assay [6]. This molecule also registered a Kd with human FcRn of 1090 nM.

B4: A375-SCF040/B167-Lamlib (antibody, human IgG1, lambda)
heavy: EVQLVESGGGLVKPGGSLRLSCAASGFTFSTFTMNWVRQAPGKGLEWVSSISSKSTYIEYADSFKVRFTISRDNAKNSLYLQMNSLRAEDTAVYYCARYGAKNFLNWVFDYWGQGTLVTVSSASTKGPSVFPLAPSSKSTSGGTAALGCLVKDYFPEPVTVSWNSGALTSGVHTFPAVLQSSGLYSLSSVVTVPSSSLGTQTYICNVNHKPSNTKVDKKVEPKSCDKTHTCPPCPAPELWNGPSVFLFPPKPKDTLMISRTPEVTCVVVDVSDEDPEVKFNWYVDGVEVHNAKTKPREELYNSTYRVVSVLTVLHQDWLNGKEYKCKVSNTALPKPIEKTISKAKGQPREPQVYTLPPSREEMTKNQVSLTCLVKGFYPSDIAVEWESNGQPENNYKTTPPVLDSDGSFFLYSKLTVKKSRWQQGNVFSCSVMHEALHNHYTQKSLSLSP
light: QSALTQPPSASGSPGQTVTISCTGTRYDVGYYEYVSWYQQHPGKAPKLMIYETSKRLSGVPDRFSGSKSGNTASLTVSGLQAEDEADYYCSSYRYEHQVSFGGGTKLTVLGQPKAAPSVTLFPPSSEELQANKATLVCLISDFYPGAVTVAWKADSSPVKAGVETTTPSKQSNNKYAASSYLSLTPEQWKSHRSYSCQVTHEGSTVEKTVAPTECS
notes: copies: 2 + 2
Turning to B4, the “binding per 1RU antibody” value in assay [1] amounted to 0.0446 RU; in assay [2], 0.0013 RU; in assay [3], 0.001 RU; in assay [4], 0.0454 RU; in assay [5], 0.0465 RU; in assay [6], 0.0016 RU. For the same molecule, the “relative binding” value in assay [1] is 0.96; in assay [2], 0.02; in assay [3], 0.05; in assay [4], 0.8; in assay [5], 4.24; in assay [6] it was 0.02. Moreover, in the assay with human FcRn, the Kd is 1460 nM.
